Laboratory results: article PMC9470112 (2020)

B1: TCR-C1 (TCR)
alpha TRAV30 TRAJ45 CDR3: CGTGSGGGADGLTF
beta TRBV6-3 TRBJ2-1 CDR3: CASSPEGVFNEQFF
B2: EBV-LMP2^ESE-specific TCR from donor A (TCR)
alpha TRAV12 TRAJ3 CDR3: CVVTGYSSASKIIF
beta TRBV6-3 TRBJ2-1 CDR3: CASSWEGQYNEQFF
B3: EBV-LMP2^ESE-specific TCR from donor E (TCR)
alpha TRAV26 TRAJ23 CDR3: CIVSGGKLIF
beta TRBV12-3/4 TRBJ2-5 CDR3: CASSSSWTSGSGETQYF
B4: TCR-B1 (TCR)
alpha TRAV12 TRAJ3 CDR3: CVVTGYSSASKIIF
beta TRBV6-3 TRBJ2-1 CDR3: CASSSEGQFNEQFF
B5: EBV-LMP2^ESE-specific TCR C^2 from donor C (TCR)
alpha TRAV30 TRAJ45 CDR3: CGTEDGRGGADGLTF
beta TRBV6-3 TRBJ2-1 CDR3: CASSYGIYEQFF

Biological target: T1, EBV LMP2 (latent membrane protein 2) peptide on HLA-A*01:01 (human)
T1 peptide: ESEERPPTPY
Assay: multimer staining

Binder | binding result
B1 | recognises
B2 | recognises
B3 | recognises
B4 | recognises
B5 | recognises
